Measurements published in patent publication US20190300625A1 (Regeneron, published 2019).

Experiments:
[1] = target: T1, hTMPRSS2 knob_mmh (W106-R255).mmh (human); assay: SPR (Biacore 4000), mAb captured by anti-mouse Fc, HMM-hTMPRSS2 as analyte, 37 C
T1 construct: also called hTMPRSS2.mmh; HMM-hTMPRSS2

[2] = target: T2, mfTMPRSS2 knob_mmh (W106-R255).mmh (monkey); assay: SPR (Biacore 4000), mAb captured by anti-mouse Fc, HMM-mfTMPRSS2 as analyte, 25 C
T2 construct: also called mfTMPRSS2.mmh; HMM-mfTMPRSS2

[3] = target: T1, hTMPRSS2 knob_mmh (W106-R255).mmh; assay: SPR (Biacore 4000), mAb captured by anti-mouse Fc, HMM-hTMPRSS2 as analyte, 25 C
[4] = target: T2, mfTMPRSS2 knob_mmh (W106-R255).mmh; assay: SPR (Biacore 4000), mAb captured by anti-mouse Fc, HMM-mfTMPRSS2 as analyte, 37 C

T2 sequence (chain, as listed by the source limits assumed): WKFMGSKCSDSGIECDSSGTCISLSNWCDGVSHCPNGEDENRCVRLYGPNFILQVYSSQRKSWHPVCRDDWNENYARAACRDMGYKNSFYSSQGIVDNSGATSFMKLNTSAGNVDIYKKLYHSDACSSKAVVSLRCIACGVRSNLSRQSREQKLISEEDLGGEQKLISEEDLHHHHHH
T1 sequence (chain, as listed by the source limits assumed): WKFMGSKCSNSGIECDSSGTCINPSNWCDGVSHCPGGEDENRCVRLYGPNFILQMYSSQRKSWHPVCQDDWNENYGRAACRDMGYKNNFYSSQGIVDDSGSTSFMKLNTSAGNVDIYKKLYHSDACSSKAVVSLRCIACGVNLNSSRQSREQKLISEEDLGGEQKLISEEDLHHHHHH

B1: H2aM7017N (antibody, V domains shown)
VH: QVQLVESGGGVVQPGRSLRLSCAASGFTFSSYGMHWVRQSPGKGLEWVAVIWNDGSYVYYADSVKGRFTISRDISKNTLFLQMNSLRAEDTAVYYCAREGEWVLYYFDYWGQGTLVTVSS
VL: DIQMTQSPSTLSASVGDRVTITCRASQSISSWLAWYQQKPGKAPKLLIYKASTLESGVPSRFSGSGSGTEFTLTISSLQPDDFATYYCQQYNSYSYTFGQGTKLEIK
notes: also called anti-TMPRSS2 monoclonal antibody (Biacore)
[1]
  Kd: 9.31 nM
  koff: 0.00323 s⁻¹
  kon: 347000 M⁻¹ s⁻¹
  t½: 3.6 min
[2]
  Kd: 56 nM
  koff: 0.0157 s⁻¹
  kon: 280000 M⁻¹ s⁻¹
  t½: 0.7 min
[3]
  Kd: 2.81 nM
  koff: 0.000745 s⁻¹
  kon: 265000 M⁻¹ s⁻¹
  t½: 15.5 min
[4]
  Kd: 140 nM
  koff: 0.0512 s⁻¹
  kon: 366000 M⁻¹ s⁻¹
  t½: 0.2 min
